The supplement of paper PMC9112550, “Optimization of the antimicrobial peptide Bac7 by deep mutational scanning” (BMC Biology, 2022)

Tested on: Escherichia coli TOP10
Assay: shrunken log2 fold change of peptide-encoding DNA abundance (4.5 h post-induction vs induction); higher = less antimicrobial activity (less host growth inhibition)
Conditions: time post-induction: 4.5 h; library: site-saturation at positions 5, 18, 19, 20
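Note: peptides expressed intracellularly from a pBAD plasmid library in pooled LB shake-flask culture, induced with 0.3% L-arabinose, DNA abundance read by NGS, three biological replicates, DESeq2 with apeglm shrinkage.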

Sequence	shrunken log2 fold change
RRIRKRPPRLPRPRPRPMQMPRP	-0.00145
RRIRQRPPRLPRPRPRPGMHPRP	-0.0509
RRIRFRPPRLPRPRPRPKWRPRP	0.413
RRIRPRPPRLPRPRPRPLMAPRP	0.213
RRIRWRPPRLPRPRPRPRYIPRP	-0.665
RRIRKRPPRLPRPRPRPAEMPRP	-0.00753
RRIRIRPPRLPRPRPRPCFLPRP	-0.544
RRIRIRPPRLPRPRPRPVWTPRP	-0.273
RRIRCRPPRLPRPRPRPADIPRP	-0.941
RRIRYRPPRLPRPRPRPNNKPRP	-1.17
RRIRRRPPRLPRPRPRPEGGPRP	0.103
RRIRKRPPRLPRPRPRPEGSPRP	0.102
RRIRFRPPRLPRPRPRPDQPPRP	0.57
RRIRSRPPRLPRPRPRPLIKPRP	-0.258
RRIRPRPPRLPRPRPRPAHDPRP	6.73e-05
RRIRPRPPRLPRPRPRPPFLPRP	0.188
RRIRFRPPRLPRPRPRPHCMPRP	-0.371
RRIRTRPPRLPRPRPRPHVCPRP	-0.04
RRIRPRPPRLPRPRPRPSAQPRP	-0.0511
RRIRLRPPRLPRPRPRPKGAPRP	0.379
RRIRYRPPRLPRPRPRPPSVPRP	-0.209
RRIRCRPPRLPRPRPRPLDNPRP	-0.235
RRIRVRPPRLPRPRPRPAYGPRP	-0.473
RRIRERPPRLPRPRPRPCMPPRP	0.0888
RRIRGRPPRLPRPRPRPMKRPRP	0.343

Sequence	shrunken log2 fold change
RRIRERPPRLPRPRPRPYATPRP	-0.359
RRIRTRPPRLPRPRPRPRPAPRP	0.555
RRIRSRPPRLPRPRPRPNHNPRP	-0.784
RRIRSRPPRLPRPRPRPYYCPRP	2.2
RRIRCRPPRLPRPRPRPKSRPRP	0.0706
RRIRFRPPRLPRPRPRPVPPPRP	0.46
RRIRLRPPRLPRPRPRPMMEPRP	0.195
RRIRLRPPRLPRPRPRPNILPRP	-0.634
RRIRFRPPRLPRPRPRPRAEPRP	0.363
RRIRCRPPRLPRPRPRPVSDPRP	0.0185
RRIRWRPPRLPRPRPRPCVVPRP	0.0549
RRIRIRPPRLPRPRPRPTQHPRP	0.0549
RRIRPRPPRLPRPRPRPDMAPRP	-0.119
RRIRTRPPRLPRPRPRPAVWPRP	0.556
RRIRYRPPRLPRPRPRPHHIPRP	-0.356
RRIRGRPPRLPRPRPRPTDAPRP	1.14
RRIRHRPPRLPRPRPRPGYYPRP	-0.318
RRIRTRPPRLPRPRPRPITNPRP	-0.489
RRIRKRPPRLPRPRPRPDRDPRP	0.00592
RRIRSRPPRLPRPRPRPIVDPRP	0.115
RRIRVRPPRLPRPRPRPVPGPRP	0.0985
RRIRIRPPRLPRPRPRPDHPPRP	-0.266
RRIRKRPPRLPRPRPRPTWDPRP	0.289
RRIRRRPPRLPRPRPRPFAKPRP	0.219
RRIRNRPPRLPRPRPRPSFMPRP	-1.21

Sequence	shrunken log2 fold change
RRIRFRPPRLPRPRPRPMAMPRP	0.102
RRIRCRPPRLPRPRPRPVWSPRP	-0.119
RRIRMRPPRLPRPRPRPSYSPRP	-0.157
RRIRVRPPRLPRPRPRPCWHPRP	-0.0327
RRIRDRPPRLPRPRPRPGMWPRP	0.634
RRIRCRPPRLPRPRPRPLDCPRP	0.0147
RRIRYRPPRLPRPRPRPPLQPRP	0.187
RRIRSRPPRLPRPRPRPVPDPRP	-0.0298
RRIRCRPPRLPRPRPRPAQPPRP	0.366
RRIRQRPPRLPRPRPRPAEVPRP	0.142
RRIRNRPPRLPRPRPRPEHLPRP	0.0408
RRIRIRPPRLPRPRPRPCIQPRP	-0.185
RRIRSRPPRLPRPRPRPKGWPRP	1.19
RRIRERPPRLPRPRPRPDTMPRP	-0.336
RRIRIRPPRLPRPRPRPPQYPRP	-0.226
RRIRIRPPRLPRPRPRPLDYPRP	-0.504
RRIRARPPRLPRPRPRPGDQPRP	0.804
RRIRWRPPRLPRPRPRPCLEPRP	0.012
RRIRIRPPRLPRPRPRPACNPRP	-0.363
RRIRWRPPRLPRPRPRPLLAPRP	1.03
RRIRTRPPRLPRPRPRPSIYPRP	-0.513
RRIRFRPPRLPRPRPRPEIDPRP	0.0823
RRIRCRPPRLPRPRPRPVDWPRP	1.33
RRIRYRPPRLPRPRPRPHNEPRP	-0.675
RRIRLRPPRLPRPRPRPVTFPRP	-0.0737
